According to US20110165161A1, “ANTI-EPCAM ANTIBODIES THAT INDUCE APOPTOSIS OF CANCER CELLS AND METHODS USING SAME” (priority 2009, published 2011):

Assays:
[1] = biological target: T1, human EpCAM (epithelial cell adhesion/activating molecule) (human, UniProt P16422 24-314); test: cell-based or functional assay
T1 sequence: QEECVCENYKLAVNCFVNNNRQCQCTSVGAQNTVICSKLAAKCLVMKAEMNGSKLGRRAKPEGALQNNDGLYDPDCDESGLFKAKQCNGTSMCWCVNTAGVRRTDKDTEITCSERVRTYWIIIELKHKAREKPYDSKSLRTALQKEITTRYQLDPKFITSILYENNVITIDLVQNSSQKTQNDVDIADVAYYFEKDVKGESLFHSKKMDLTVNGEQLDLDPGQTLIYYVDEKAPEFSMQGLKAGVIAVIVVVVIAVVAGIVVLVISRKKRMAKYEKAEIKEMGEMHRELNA

[2] = biological target: T1, human EpCAM (epithelial cell …); test: cell-based or functional assay; remark: listed apart in the source
[3] = biological target: T1, human EpCAM (epithelial cell …); test: flow cytometry, CHO/EpCAM cells, 0.1 µg/ml antibody
Experimental: A 300× dilution of human cell hyper-immune serum (HPS 300×) was used as binding positive control for both cell lines here. After 1 hr incubation at 4° C., cells were washed twice with 200 μl FACS buffer (1×PBS containing 1% FBS), stained with 100 μl of 1 μg/ml goat-anti-mouse IgG-PE (Southern Biotech, Cat. No. 1032-09) in FACS buffer and then incubated at 4° C. for 30 min. Cells were washed thrice with FACS buffer and analyzed by flow cytometry (BD LSR, BD Life Sciences).

EGFI-Cr1 N42E = biological target: T2, EGFI-Cr1 N42E (human, UniProt P16422 24-63); test: direct ELISA, coated EGFI-Cr1 fusion, 0.1 µg/ml antibody
T2 construct: not shown: the constant region of human immunoglobulin gamma 1 heavy chain (Cr1) fused at the C-terminus
T2 chain: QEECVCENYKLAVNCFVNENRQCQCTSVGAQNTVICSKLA
Experimental: (§1) A direct ELISA was used for testing the reactivity of anti-EpCAM antibodies toward variant EpCAM mutants. Briefly, purified EpCAM EGF-1 fusion proteins (WT, Q24A, E25K, E26D, A35T, N37R, F39A, V40E, N41A, N42E, N43A, R44G, Q45A, Q47A or T49A) and irrelevant control (CEA-Cr1) were pre-diluted to 0.5 μg/ml in coating buffer (8.4 g NaHCO₃, 3.4 g Na₂CO₃ in 1 L H₂O, pH 9.5) and aliquoted (100 μl/well) into 96-well plates. […] Plates were then washed 3 times with PBST followed by the addition of the enzyme substrate TMB (BD Biosciences, Cat. No. 555214). […] The optical densities at 450 nm wavelength were measured on an ELISA plate reader.

EGFI-Cr1 A35T = biological target: T3, EGFI-Cr1 A35T (human, UniProt P16422 24-63); test: as above
T3 construct: not shown: The fused constant region of human immunoglobulin gamma 1 heavy chain (Cr1)
T3 chain: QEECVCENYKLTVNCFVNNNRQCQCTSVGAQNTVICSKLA
Experimental: as §1

EGFI-Cr1 R44G = biological target: T4, EGFI-Cr1 R44G (human, UniProt P16422 24-63); test: as above
T4 construct: not shown: the constant region of human immunoglobulin gamma 1 heavy chain (Cr1) fused at the C-terminus
T4 chain: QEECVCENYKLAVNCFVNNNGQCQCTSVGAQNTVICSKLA
Experimental: as §1

EGFI-Cr1 F39A = biological target: T5, EGFI-Cr1 F39A (human, UniProt P16422 24-63); test: as above
T5 construct: not shown: The fused constant region of human immunoglobulin gamma 1 heavy chain (Cr1)
T5 chain: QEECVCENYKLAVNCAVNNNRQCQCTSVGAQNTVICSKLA
Experimental: as §1

EGFI-Cr1 E26D = biological target: T6, EGFI-Cr1 E26D (human, UniProt P16422 24-63); test: as above
T6 construct: not shown: The fused constant region of human immunoglobulin gamma 1 heavy chain (Cr1)
T6 chain: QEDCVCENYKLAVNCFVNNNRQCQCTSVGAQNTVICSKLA
Experimental: as §1

EGFI-Cr1 V40E = biological target: T7, EGFI-Cr1 V40E (human); test: as above
T7 construct: not shown: The fused constant region of human immunoglobulin gamma 1 heavy chain (Cr1)
T7 chain: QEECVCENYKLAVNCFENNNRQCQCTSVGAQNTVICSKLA
Experimental: as §1

EGFI-Cr1 N43A = biological target: T8, EGFI-Cr1 N43A (human, UniProt P16422 24-63); test: as above
T8 construct: not shown: the constant region of human immunoglobulin gamma 1 heavy chain (Cr1) fused at the C-terminus
T8 chain: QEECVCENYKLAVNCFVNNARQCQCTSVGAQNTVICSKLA
Experimental: as §1

[4] = biological target: T9, EGFI-Cr1 wild type (first EGF-like repeat of human EpCAM fused to the constant region of human immunoglobulin … (human, UniProt P01857-1 99-330 = IgG part)); test: as above
T9 construct: cDNA covered aa 1-63; Expressed in COS-7 cells; also called WT; EpCAM EGF-1 fusion protein WT
Experimental: as §1

EGFI-Cr1 Q47A = biological target: T10, EGFI-Cr1 Q47A (human, UniProt P16422 24-63); test: as above
T10 construct: not shown: the constant region of human immunoglobulin gamma 1 heavy chain (Cr1) fused at the C-terminus
T10 chain: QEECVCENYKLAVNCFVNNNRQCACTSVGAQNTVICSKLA
Experimental: as §1

EGFI-Cr1 Q24A = biological target: T11, EGFI-Cr1 Q24A (human, UniProt P16422 25-63); test: as above
T11 construct: not shown: The fused constant region of human immunoglobulin gamma 1 heavy chain (Cr1)
T11 chain: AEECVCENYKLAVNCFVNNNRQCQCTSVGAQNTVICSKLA
Experimental: as §1

EGFI-Cr1 E25K = biological target: T12, EGFI-Cr1 E25K (human, UniProt P16422 24-63); test: as above
T12 construct: not shown: The fused constant region of human immunoglobulin gamma 1 heavy chain (Cr1)
T12 chain: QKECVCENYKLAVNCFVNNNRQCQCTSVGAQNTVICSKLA
Experimental: as §1

EGFI-Cr1 N37R = biological target: T13, EGFI-Cr1 N37R (human); test: as above
T13 construct: not shown: The fused constant region of human immunoglobulin gamma 1 heavy chain (Cr1)
T13 chain: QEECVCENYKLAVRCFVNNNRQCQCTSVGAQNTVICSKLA
Experimental: as §1

EGFI-Cr1 N41A = biological target: T14, EGFI-Cr1 N41A (human, UniProt P16422 24-63); test: as above
T14 construct: not shown: The fused constant region of human immunoglobulin gamma 1 heavy chain (Cr1)
T14 chain: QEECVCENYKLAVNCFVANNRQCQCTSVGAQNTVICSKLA
Experimental: as §1

EGFI-Cr1 T49A = biological target: T15, EGFI-Cr1 T49A (human, UniProt P16422 24-63); test: as above
T15 construct: not shown: the constant region of human immunoglobulin gamma 1 heavy chain (Cr1) fused at the C-terminus
T15 chain: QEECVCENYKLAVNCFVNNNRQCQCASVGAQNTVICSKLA
Experimental: as §1

EGFI-Cr1 Q45A = biological target: T16, EGFI-Cr1 Q45A (human, UniProt P16422 24-63); test: as above
T16 construct: not shown: the constant region of human immunoglobulin gamma 1 heavy chain (Cr1) fused at the C-terminus
T16 chain: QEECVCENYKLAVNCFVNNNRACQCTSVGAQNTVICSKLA
Experimental: as §1

- % Annexin V/PI-positive cells, DLD-1, 1.0 µg/ml mAb [1]: 28%
- % Annexin V/PI-positive cells, DLD-1, 3.0 µg/ml mAb [1]: 53%
- % Annexin V/PI-positive cells, DLD-1, 10 µg/ml mAb [1]: 62%
- % Annexin V/PI-positive cells, FaDu, 1.0 µg/ml mAb [1]: 26%
- % Annexin V/PI-positive cells, FaDu, 3.0 µg/ml mAb [1]: 39%
- % Annexin V/PI-positive cells, FaDu, 10 µg/ml mAb [1]: 37%
- % Annexin V/PI-positive cells, LNCaP, 1.0 µg/ml mAb [1]: 38%
- % Annexin V/PI-positive cells, LNCaP, 3.0 µg/ml mAb [1]: 43%
- % Annexin V/PI-positive cells, LNCaP, 10 µg/ml mAb [1]: 44%
- % Annexin V/PI-positive cells, NCI-H520, 1.0 µg/ml mAb [1]: 38%
- % Annexin V/PI-positive cells, NCI-H520, 3.0 µg/ml mAb [1]: 42%
- % Annexin V/PI-positive cells, NCI-H520, 10 µg/ml mAb [1]: 49%
- % Annexin V/PI-positive cells, NCI-N87, 1.0 µg/ml mAb [1]: 41%
- % Annexin V/PI-positive cells, NCI-N87, 3.0 µg/ml mAb [1]: 51%
- % Annexin V/PI-positive cells, NCI-N87, 10 µg/ml mAb [1]: 57%
- % Annexin V/PI-positive cells, NIH:OVCAR-3, 1.0 µg/ml mAb [1]: 46%
- % Annexin V/PI-positive cells, NIH:OVCAR-3, 3.0 µg/ml mAb [1]: 52%
- % Annexin V/PI-positive cells, NIH:OVCAR-3, 10 µg/ml mAb [1]: 55%
- % Annexin V/PI-positive cells, T-47D, 1.0 µg/ml mAb [1]: 25%
- % Annexin V/PI-positive cells, T-47D, 3.0 µg/ml mAb [1]: 40%
- % Annexin V/PI-positive cells, T-47D, 10 µg/ml mAb [1]: 44%
- % of Annexin V + PI staining (untreated background subtracted), NCI-H358, 10 µg/ml mAb, Exp1 [2]: 45%
- % of Annexin V + PI staining (untreated background subtracted), NCI-H358, 10 µg/ml mAb, Exp2 [2]: 40%
- % of Annexin V + PI staining (untreated background subtracted), NCI-H358, 10 µg/ml mAb, Exp3 [2]: 44%
- % of Annexin V + PI staining (untreated background subtracted), NCI-H358, 10 µg/ml mAb, Exp4 [2]: 43%
- % of Annexin V + PI staining (untreated background subtracted), NCI-H358, 10 µg/ml mAb, Exp5 [2]: 40%
- MFI [3]: 1350 MFI
- relative binding activity (% of WT) (EGFI-Cr1 N42E): 83%
- relative binding activity (% of WT) (EGFI-Cr1 A35T): 39%
- relative binding activity (% of WT) (EGFI-Cr1 R44G): 2%
- relative binding activity (% of WT) (EGFI-Cr1 F39A): 23%
- relative binding activity (% of WT) (EGFI-Cr1 E26D): 57%
- relative binding activity (% of WT) (EGFI-Cr1 V40E): 2%
- relative binding activity (% of WT) (EGFI-Cr1 N43A): 65%
- relative binding activity (% of WT) [4]: 100%
- relative binding activity (% of WT) (EGFI-Cr1 Q47A): 33%
- relative binding activity (% of WT) (EGFI-Cr1 Q24A): 47%
- relative binding activity (% of WT) (EGFI-Cr1 E25K): 4%
- relative binding activity (% of WT) (EGFI-Cr1 N37R): 69%
- relative binding activity (% of WT) (EGFI-Cr1 N41A): 2%
- relative binding activity (% of WT) (EGFI-Cr1 T49A): 67%
- relative binding activity (% of WT) (EGFI-Cr1 Q45A): 8%
B1: murine monoclonal antibody 6D11 (antibody, mouse IgG1, V domains shown)
VH: EVQLVESGGDLVKPGGSLKLSCAASGFAFDSYGMSWIRQTPGTRLEWVATISSGGYYTYYEDNVKGRFIISRDNAKNTLDLQMSGLKSEDAATYYCARRGNYDVDYYAMDYWGQGTSVIVSS
VL: DVVLTQIPLSLPVSLGDQASISCRSSQSLEHSNGNTYLHWYLQKPGQSPKLLIYKVSNRFSGVPDRFSGSGSGTDFTLKISRVEAEDLGVYFCSQSTHVPPWTFGGGTKLEFKR
notes: Mouse IgG1, kappa, from hybridoma; also called m338-6D11.8
